According to the supplement of paper PMC10724198:
± gives the standard deviation of the averaged measurements.

Key:
[1] = system: Saccharomyces cerevisiae; experiment: protein stability index of tFT-peptide fusion (C-terminal peptide) (PSI (0-1 scale)); higher = more stable (slower turnover)
Description: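 MPS profiling in S. cerevisiae of the tFT-X12 degron library: putative degron peptides plus stable controls, 12 aa, fused to the C-terminus of a sfGFP-mCherry timer. Cells are FACS-sorted into 8 mCherry/sfGFP bins and deep-sequenced. PSI runs from 0 (unstable) to 1 (stable). Backgrounds are wild type, das1Δ and doa10Δ at 30 °C, and wild type, das1Δ, cdc34-1 and cdc53-1 at 37 °C; 2-3 technical replicates each.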

[2] = system: Saccharomyces cerevisiae; experiment: as above; conditions: genetic background: wild type; temperature: 30 C
[3] = genetic background: cdc34-1, temperature: 37 C
[4] = genetic background: cdc53-1, temperature: 37 C
[5] = genetic background: das1 deletion, temperature: 30 C
[6] = genetic background: das1 deletion, temperature: 37 C
[7] = genetic background: doa10 deletion, temperature: 30 C
[8] = genetic background: wild type, temperature: 30 C
[9] = genetic background: wild type, temperature: 37 C
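Further: PSI is a weighted mean of sequencing reads over stability bins, variants kept only with over 10 reads, mCherry proximal and sfGFP distal, peptide attached via GGGS linker.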

Sequence | protein stability index [1, 3] | protein stability index [1, 4] | protein stability index [1, 5] | protein stability index [1, 6] | protein stability index [1, 7] | protein stability index [1, 8] | protein stability index [1, 9] | protein stability index [2]
NENQIKVIMLLV | 0.4964 ± 0.0021 | 0.572 ± 0.092 | 0.344 ± 0.052 | 0.555 ± 0.0077 | 0.153 ± 0.0095 | 0.196 ± 0.04 | 0.268 ± 0.011 | 0.266 ± 0.011
SVMTFVFFISAF | 0.257 ± 0.013 | 0.397 ± 0.021 | 0.243 ± 0.039 | 0.438 ± 0.021 | 0.212 ± 0.0043 | 0.238 ± 0.037 | 0.396 ± 0.0055 | 0.344 ± 0.1
FSVLVVYTRLFQ | 0.427 ± 0.064 | 0.452 ± 0.033 | 0.332 ± 0.042 | 0.558 ± 0.013 | 0.306 ± 0.011 | 0.321 ± 0.033 | 0.508 ± 0.012 | 0.414 ± 0.091
YMVESVWVLLGT | 0.573 ± 0.029 | 0.5755 ± 0.0052 | 0.431 ± 0.032 | 0.582 ± 0.0083 | 0.381 ± 0.014 | 0.421 ± 0.042 | 0.564 ± 0.0079 | 0.49 ± 0.016
VIYNSALLLVRL | 0.273 ± 0.031 | 0.225 ± 0.01 | 0.249 ± 0.031 | 0.407 ± 0.037 | 0.325 ± 0.014 | 0.25 ± 0.023 | 0.386 ± 0.01 | 0.391 ± 0.041
YTCFLFLLRCMT | 0.303 ± 0.048 | 0.3521 ± 0.00065 | 0.261 ± 0.044 | 0.415 ± 0.0047 | 0.1757 ± 0.00026 | 0.198 ± 0.024 | 0.294 ± 0.002 | 0.292 ± 0.003
PHHSPPTGPPND | 0.673 ± 0.011 | 0.737 ± 0.018 | 0.648 ± 0.008 | 0.7171 ± 0.0041 | 0.663 ± 0.014 | 0.658 ± 0.007 | 0.705 ± 0.0085 | 0.687 ± 0.022
FSICGFYSLCFG | 0.569 ± 0.028 | 0.617 ± 0.019 | 0.503 ± 0.021 | 0.628 ± 0.013 | 0.4968 ± 0.0046 | 0.512 ± 0.0077 | 0.599 ± 0.023 | 0.492 ± 0.045
CLASCRHRTYLC | 0.652 ± 0.026 | 0.7142 ± 0.0013 | 0.641 ± 0.023 | 0.7223 ± 0.0018 | 0.338 ± 0.015 | 0.364 ± 0.025 | 0.58 ± 0.016 | 0.483 ± 0.12
PSCLLVAPRFSS | 0.672 ± 0.036 | 0.745 ± 0.015 | 0.67 ± 0.022 | 0.712 ± 0.027 | 0.677 ± 0.014 | 0.694 ± 0.019 | 0.715 ± 0.0045 | 0.755 ± 0.017
LIRDLLYMAVLV | 0.249 ± 0.015 | 0.258 ± 0.016 | 0.295 ± 0.019 | 0.357 ± 0.018 | 0.32 ± 0.0083 | 0.281 ± 0.039 | 0.329 ± 0.0044 | 0.38 ± 0.019
YPVGAAFIRARA | 0.45 ± 0.016 | 0.501 ± 0.021 | 0.361 ± 0.036 | 0.5378 ± 0.0026 | 0.326 ± 0.0087 | 0.377 ± 0.026 | 0.5174 ± 0.0047 | 0.491 ± 0.011
CLLGMKSRTILV | 0.347 ± 0.029 | 0.33 ± 0.0047 | 0.289 ± 0.028 | 0.4262 ± 0.0024 | 0.236 ± 0.006 | 0.287 ± 0.03 | 0.397 ± 0.015 | 0.377 ± 0.014
CFSYLLIVLLFP | 0.168 ± 0.019 | 0.2273 ± 0.00043 | 0.198 ± 0.024 | 0.334 ± 0.031 | 0.216 ± 0.0065 | 0.17 ± 0.045 | 0.307 ± 0.0052 | 0.279 ± 0.005
IFAWPFSATIPW | 0.74 ± 0.022 | 0.81258 ± 0.00076 | 0.696 ± 0.012 | 0.80758 ± 0.00033 | 0.706 ± 0.0086 | 0.7 ± 0.011 | 0.788 ± 0.032 | 0.784 ± 0.021
FNMLFVVRLLYM | 0.37 ± 0.033 | 0.418 ± 0.0046 | 0.334 ± 0.053 | 0.473 ± 0.026 | 0.259 ± 0.027 | 0.257 ± 0.045 | 0.396 ± 0.0043 | 0.365 ± 0.0057
CSSIFSSSDCYA | 0.681 ± 0.059 | 0.7582 ± 0.0047 | 0.672 ± 0.029 | 0.7219 ± 0.0061 | 0.68 ± 0.01 | 0.68 ± 0.018 | 0.731 ± 0.011 | 0.7457 ± 0.0014
FPFFVFRVWFGA | 0.4642 ± 0.0036 | 0.535 ± 0.01 | 0.414 ± 0.026 | 0.565 ± 0.006 | 0.32953 ± 0.00015 | 0.346 ± 0.033 | 0.502 ± 0.022 | 0.464 ± 0.014
LGFHFFFTLIFF | 0.284 ± 0.054 | 0.274 ± 0.0087 | 0.279 ± 0.04 | 0.4 ± 0.031 | 0.4518 ± 0.0032 | 0.305 ± 0.039 | 0.37 ± 0.042 | 0.381 ± 0.03
LSRHLILFIVIR | 0.0962 ± 0.042 | 0.0846 ± 0.02 | 0.172 ± 0.014 | 0.2805 ± 0.0024 | 0.289 ± 0.019 | 0.174 ± 0.019 | 0.2008 ± 0.00073 | 0.272 ± 0.036

Sequence | protein stability index [1, 3] | protein stability index [1, 4] | protein stability index [1, 5] | protein stability index [1, 6] | protein stability index [1, 7] | protein stability index [1, 8] | protein stability index [1, 9] | protein stability index [2]
SSVCYFGLLFIV | 0.452 ± 0.038 | 0.561 ± 0.015 | 0.44 ± 0.026 | 0.623 ± 0.034 | 0.103 ± 0.0046 | 0.103 ± 0.022 | 0.139 ± 0.022 | 0.184 ± 0.0042
WSFAPRLRCSYL | 0.927 ± 0.0095 | 0.925 ± 0.012 | 0.784 ± 0.029 | 0.883 ± 0.012 | 0.7642 ± 0.004 | 0.792 ± 0.048 | 0.878 ± 0.029 | 0.809 ± 0.055
LFFSFLFLATRC | 0.248 ± 0.012 | 0.209 ± 0.018 | 0.254 ± 0.045 | 0.39184 ± 0.00039 | 0.2246 ± 0.00043 | 0.193 ± 0.019 | 0.311 ± 0.016 | 0.236 ± 0.037
RRRGIYARASVV | 0.636 ± 0.018 | 0.728 ± 0.019 | 0.647 ± 0.019 | 0.723 ± 0.017 | 0.249 ± 0.0044 | 0.276 ± 0.043 | 0.434 ± 0.023 | 0.382 ± 0.015
LNSSVLRLRFFV | 0.542 ± 0.027 | 0.739 ± 0.063 | 0.607 ± 0.037 | 0.756 ± 0.04 | 0.0882 ± 0.011 | 0.098 ± 0.024 | 0.152 ± 0.041 | 0.2643 ± 0.0019
RFWFTFYLIAVF | 0.0612 ± 0.029 | 0.0779 ± 0.017 | 0.109 ± 0.031 | 0.203 ± 0.0098 | 0.0617 ± 0.016 | 0.0761 ± 0.023 | 0.163 ± 0.081 | 0.103 ± 0.0027
FWCVFVFFVCVG | 0.255 ± 0.042 | 0.354 ± 0.006 | 0.258 ± 0.028 | 0.399 ± 0.013 | 0.231 ± 0.0025 | 0.238 ± 0.023 | 0.349 ± 0.017 | 0.275 ± 0.01
GGVVAACRGGIG | 0.319 ± 0.011 | 0.3862 ± 0.0037 | 0.351 ± 0.017 | 0.394 ± 0.0076 | 0.361 ± 0.022 | 0.348 ± 0.01 | 0.374 ± 0.0091 | 0.346 ± 0.04
FFVYFFLLLFWF | 0.171 ± 0.015 | 0.0838 ± 0.023 | 0.213 ± 0.029 | 0.233 ± 0.027 | 0.272 ± 0.028 | 0.188 ± 0.015 | 0.196 ± 0.0034 | 0.208 ± 0.0049
FLMCVFFLCFSN | 0.304 ± 0.031 | 0.41 ± 0.051 | 0.308 ± 0.024 | 0.472 ± 0.015 | 0.208 ± 0.0021 | 0.22 ± 0.019 | 0.325 ± 0.029 | 0.34 ± 0.028
FMCCFWFFWLGF | 0.522 ± 0.041 | 0.518 ± 0.0095 | 0.421 ± 0.024 | 0.53 ± 0.0084 | 0.451 ± 0.006 | 0.438 ± 0.0098 | 0.501 ± 0.0061 | 0.459 ± 0.031
LPVPARPFPPSS | 0.662 ± 0.027 | 0.713 ± 0.0083 | 0.684 ± 0.024 | 0.711 ± 0.014 | 0.705 ± 0.031 | 0.688 ± 0.021 | 0.6907 ± 0.0012 | 0.714 ± 0.0095
KAEKNSKKTSTE | 0.685 ± 0.073 | 0.721 ± 0.013 | 0.658 ± 0.064 | 0.68229 ± 0.0003 | 0.633 ± 0.031 | 0.649 ± 0.033 | 0.702 ± 0.021 | 0.698 ± 0.044
AFVVYSGSHGLV | 0.686 ± 0.0094 | 0.75 ± 0.032 | 0.659 ± 0.014 | 0.7518 ± 0.0027 | 0.648 ± 0.011 | 0.654 ± 0.014 | 0.7186 ± 0.003 | 0.57 ± 0.2
YGWGFLFILTLM | 0.15 ± 0.032 | 0.153 ± 0.03 | 0.262 ± 0.038 | 0.317 ± 0.0042 | 0.14 ± 0.024 | 0.101 ± 0.018 | 0.151 ± 0.016 | 0.182 ± 0.01
FGARCSLSPLVT | 0.7249 ± 0.0062 | 0.753 ± 0.017 | 0.618 ± 0.014 | 0.7463 ± 0.0025 | 0.639 ± 0.035 | 0.652 ± 0.019 | 0.6977 ± 0.0039 | 0.547 ± 0.1
KEKGVTKIRISS | 0.6166 ± 0.0019 | 0.6861 ± 0.0021 | 0.632 ± 0.024 | 0.7071 ± 0.0024 | 0.1724 ± 0.00028 | 0.195 ± 0.037 | 0.377 ± 0.024 | 0.295 ± 0.0055
ILHRRCGLLLQI | 0.47 ± 0.04 | 0.506 ± 0.0066 | 0.447 ± 0.015 | 0.538 ± 0.017 | 0.273 ± 0.0094 | 0.278 ± 0.025 | 0.4161 ± 0.0032 | 0.343 ± 0.016
CFVPFFLPLCAF | 0.0255 ± 0.0085 | 0.0285 ± 0.0074 | 0.0864 ± 0.03 | 0.109 ± 0.058 | 0.144 ± 0.0073 | 0.0733 ± 0.019 | 0.0588 ± 0.022 | 0.139 ± 0.016
